Source: patent US20190040368

Experiments:
[1] = target: T1, recombinant human sulfamidase (rSGSH)
T1 chain: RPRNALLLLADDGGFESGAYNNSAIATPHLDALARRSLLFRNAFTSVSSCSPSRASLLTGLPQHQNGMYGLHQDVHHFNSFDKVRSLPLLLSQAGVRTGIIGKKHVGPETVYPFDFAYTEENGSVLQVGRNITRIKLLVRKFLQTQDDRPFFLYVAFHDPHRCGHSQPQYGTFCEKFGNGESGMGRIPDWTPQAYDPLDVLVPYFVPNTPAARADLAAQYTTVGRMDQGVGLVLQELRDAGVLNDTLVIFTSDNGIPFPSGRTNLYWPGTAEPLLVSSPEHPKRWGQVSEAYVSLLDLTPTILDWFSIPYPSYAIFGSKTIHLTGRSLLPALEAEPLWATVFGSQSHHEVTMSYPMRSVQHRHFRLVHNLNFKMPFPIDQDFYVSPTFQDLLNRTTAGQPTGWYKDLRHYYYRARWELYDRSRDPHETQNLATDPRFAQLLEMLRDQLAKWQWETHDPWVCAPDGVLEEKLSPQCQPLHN

[2] = target: T2, recombinant human iduronate-2 sulfatase (rhIDS)
T2 chain: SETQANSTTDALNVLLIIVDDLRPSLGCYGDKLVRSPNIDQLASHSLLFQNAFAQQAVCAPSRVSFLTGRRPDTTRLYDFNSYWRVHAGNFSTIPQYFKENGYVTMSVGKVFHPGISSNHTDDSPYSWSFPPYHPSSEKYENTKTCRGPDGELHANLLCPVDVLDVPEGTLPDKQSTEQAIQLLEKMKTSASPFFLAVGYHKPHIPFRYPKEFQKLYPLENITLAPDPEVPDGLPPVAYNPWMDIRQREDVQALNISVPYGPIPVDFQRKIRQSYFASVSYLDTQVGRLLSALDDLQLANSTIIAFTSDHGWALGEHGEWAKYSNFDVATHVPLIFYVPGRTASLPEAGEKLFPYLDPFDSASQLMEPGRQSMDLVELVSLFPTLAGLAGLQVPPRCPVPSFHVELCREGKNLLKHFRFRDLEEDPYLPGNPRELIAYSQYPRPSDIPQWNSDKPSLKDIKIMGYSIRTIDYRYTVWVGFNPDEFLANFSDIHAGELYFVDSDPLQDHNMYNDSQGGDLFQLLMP

B1: Bos taurus FGE fusion protein (Lip2pre-BtFGE-6HIS-HDEL) (protein)
chain: GEEAGPEAGAPSLVGSCGCGNPQRPGAQGSSAAAHRYSREANAPGSVPGGRPSPPTKMVPIPAGVFTMGTDDPQIKQDGEAPARRVAIDAFYMDAYEVSNAEFEKFVNSTGYLTEAEKFGDSFVFEGMLSEQVKSDIQQAVAAAPWWLPVKGANWRHPEGPDSTVLHRPDHPVLHVSWNDAVAYCTWAGKRLPTEAEWEYSCRGGLQNRLFPWGNKLQPKGQHYANIWQGEFPVTNTGEDGFRGTAPVDAFPPNGYGLYNIVGNAWEWTSDWWTVHHSAEETINPKGPPSGKDRVKKGGSYMCHKSYCYRYRCAARSQNTPDSSASNLGFRCAADHLPTTGADHLPTTGHHHHHHHDEL
In the case of B1, the % FGly conversion; sample 1, SGSH (POX) + BtFGE (POX) + hPDI (POX) [1] is reported as 95.4%, the % FGly conversion; sample 2, SGSH (POX) + BtFGE (POX) + hPDI (POX) [1] is reported as 80.4% and the % FGly conversion; sample 3, SGSH (POX) + BtFGE (POX) + hPDI (POX) § [1] is reported as 93.4%. The % FGly conversion; sample 4, SGSH (POX) + BtFGE (POX) + hPDI (POX) § [1] was 86.1%, the % FGly conversion; sample 5, SGSH (POX) + BtFGE (POX & Hp4d) [1] was 94.4% and the % FGly conversion (nano-LC MS); strain T146 (OXYY1828; BtFGE) [2] was 89.8%. For the same protein, the % FGly conversion (nano-LC MS); strain T146 (OXYY1828; BtFGE), duplicate [2] was 92.7%, the % FGly conversion-re-analyzed samples; DG29U5#7, OXYY1828; BtFGE [2] was 95.8% and the % FGly conversion-re-analyzed samples; DG33U6#6, OXYY1803; BtFGE and hPDI co-expressed [2] was 90.3%. The % FGly conversion-re-analyzed samples; DG33U8#6, OXYY1828; BtFGE [2] was 97.1%, the % FGly conversion; DG33U6#6, OXYY1803; BtFGE and hPDI co-expressed [2] was 79.5% and the “% FGly conversion; two copies of rhIDS and one copy of BtFGE (POX2 driven)” value [2] was 100% FGly conversion at a detection limit of -0.5%. For the same protein, the % active rhIDS (4MU activity against ELISA); 1 copy rhIDS, 1 copy BtFGE (POX) [2] was 129%, the % active rhIDS (4MU activity against ELISA); 1 copy rhIDS, 1 copy BtFGE (POX), 1 copy hPDI (POX) [2] was 121% and the “% activity of rhIDS; two copies of rhIDS and one copy of BtFGE (POX2 driven)” value [2] was 101% activity. For the same protein, the “Cys->FGly conversion in rhIDS (nano-LC-MS after cation exchange purification); BtFGE as a single POX2 driven copy” value [2] was “complete conversion (100%, with a detection limit of -0.5%)” and the “active rhIDS (4MU fluorogenic activity assay against sandwich ELISA), co-expression in Y. lipolytica” value [2] was “All Y. lipolytica strains co-expressing rFGE with rhIDS resulted in the expression of active rhIDS”.
